Data as given in article PMC2873897 (Nature structural & molecular biology, 2010).
One block for each molecule: values may come before it.

Tests used:
[1] = molecular target: C-cadherin ectodomain (Xenopus laevis) (UniProt P33148); experiment: AUC; details: cited from earlier work
[2] = molecular target: E cadherin EC1-2 MR extension (mouse); experiment: AUC
[3] = molecular target: E cadherin EC1-2 W2A (mouse); experiment: AUC
[4] = molecular target: E cadherin EC1-2 wild-type (WT) (mouse); experiment: AUC
[5] = molecular target: E-cadherin ectodomain (Mus musculus) (UniProt P09803); experiment: AUC; details: cited from earlier work
[6] = molecular target: T cadherin EC1-2 G extension (mouse) (UniProt Q9WTR5); experiment: AUC
[7] = molecular target: T cadherin EC1-2 I2A (mouse); experiment: AUC
[8] = molecular target: T cadherin EC1-2 R14E/D140K (charge reversal rescue mutant) (mouse); experiment: AUC
[9] = molecular target: T-cadherin EC1-2 wild-type (mouse) (UniProt Q9WTR5); experiment: SPR
[10] = molecular target: the molecule itself; experiment: AUC
[11] = molecular target: the molecule itself; experiment: AUC; remark: listed apart in the source

Molecule: C-cadherin ectodomain (from UniProt P33148)
Kd [1]: 64 µM

Kd [2]: 258 µM
Molecule: E cadherin EC1-2 MR extension (domain or fragment)

Kd [3]: 916 µM
Molecule: E cadherin EC1-2 W2A (domain or fragment)

Kd [4]: 98.6 µM
Molecule: E cadherin EC1-2 wild-type (WT) (domain or fragment)

Molecule: E-cadherin ectodomain (from UniProt P09803)
Kd [5]: 80 µM

Kd [6]: 16.5 µM
Molecule: T cadherin EC1-2 G extension (from UniProt Q9WTR5 140-355) (domain or fragment)

Kd [7]: 37.1 µM
Molecule: T cadherin EC1-2 I2A (domain or fragment)

Kd [8]: 149 µM
Molecule: T cadherin EC1-2 R14E/D140K (charge reversal rescue mutant) (domain or fragment)

fold reduction of the binding level against wild type [9]: 5 fold
Molecule: T-cadherin EC1-2 R14S (domain or fragment)

fold reduction of the binding level against wild type [9]: > 5 fold
Molecule: T-cadherin EC1-2 R14S D140S (domain or fragment)

B1: T-cadherin EC1-2 wild-type (domain or fragment, mouse)
chain: IVVSPILIPENQRQPFPRDVGKVVDSDRPEGSKFRLTGKGVDQDPKGTFRINENTGSVSVTRTLDRETIATYQLYVETTDASGKTLEGPVPLEVIVIDQNDNRPIFREGPYIGHVMEGSPTGTTVMRMTAFDADDPATDNALLRYNIRQQTPDKPSPNMFYIDPEKGDIVTVVSPALLDRETLENPKYELIIEAQDMAGLDVGLTGTATATIVIDD
stoichiometry N [10]: 2
Kd [11]: 41.4 ± 1.7 µM
